According to publication PMC3090473 (Methods (San Diego, Calif.), 2010):

B1: Un-tagged Gal3 protein (natural protein, Saccharomyces cerevisiae, UniProt P13045 1-520, looked up)
chain: MNTNVPIFSSPVRDLPRSFEQKHLAVVDAFFQTYHVKPDFIARSPGRVNLIGEHIDYCDFSVLPLAIDVDMLCAVKILDEKNPSITLTNADPKFAQRKFDLPLDGSYMAIDPSVSEWSNYFKCGLHVAHSYLKKIAPERFNNTPLVGAQIFCQSDIPTGGGLSSAFTCAAALATIRANMGKNFDISKKDLTRITAVAEHYVGVNNGGMDQATSVYGEEDHALYVEFRPKLKATPFKFPQLKNHEISFVIANTLVKSNKFETAPTNYNLRVIEVTVAANALATRYSVALPSHKDNSNSERGNLRDFMDAYYARYENQAQPWNGDIGTGIERLLKMLQLVEESFSRKKSGFTVHEASTALNCSREEFTRDYLTTFPVRFQVLKLYQRAKHVYSESLRVLKALKMMTSATFHTDEDFFTDFGRLMNESQASCDKLYECSCIETNQICSIALANGSFGSRLTGAGWGGCTIHLVPSGANGNVEQVRKALIEKFYNVRYPDLTDEELKDAIIVSKPALGTCLYEQ
B2: Un-tagged Gal80 protein (natural protein, Saccharomyces cerevisiae, UniProt P04387 1-435, looked up)
chain: MDYNKRSSVSTVPNAAPIRVGFVGLNAAKGWAIKTHYPAILQLSSQFQITALYSPKIETSIATIQRLKLSNATAFPTLESFASSSTIDMIVIAIQVASHYEVVMPLLEFSKNNPNLKYLFVEWALACSLDQAESIYKAAAERGVQTIISLQGRKSPYILRAKELISQGYIGDINSIEIAGNGGWYGYERPVKSPKYIYEIGNGVDLVTTTFGHTIDILQYMTSSYFSRINAMVFNNIPEQELIDERGNRLGQRVPKTVPDHLLFQGTLLNGNVPVSCSFKGGKPTKKFTKNLVIDIHGTKGDLKLEGDAGFAEISNLVLYYSGTRANDFPLANGQQAPLDPGYDAGKEIMEVYHLRNYNAIVGNIHRLYQSISDFHFNTKKIPELPSQFVMQGFDFEGFPTLMDALILHRLIESVYKSNMMGSTLNVSNISHYSL

Biological target: the molecule itself
Test: AUC

Protein | binding result
B1 | binds
B2 | binds
